The values below come from patent US20180188270A1, “DIAGNOSTIC TEST FOR ALZHEIMER'S DISEASE BASED ON IDENTIFICATION OF A PROTEOLYTIC PATHWAY” (Health Research, Inc., priority 2015, published 2018).

Where “and” joins values, the source holds several entries; their conditions need not be identical. Equal values may be shown once.

Data set [1] can be described thus: hPEPD-degrading activity of mouse plasma samples. Type of data set: in vitro ADME. The procedure: Measurement of in vitro degradation of hPEPD, mSRC and hAβ1-42. To determine whether a blood coagulation factor degrades hPEPD, hPEPD at 90 nM or lower concentrations (10 or 40 nM) was incubated with solvent, 100 nM FIIa, 100 nM FXa, 10 nM FVIIa with or without 10 nM TF, or 10 nM FVII with or without 10 nM TF and/or 100 nM FIIa in PBS in a total volume of 100 μl containing 5 mM CaCl2 for desired times at RT. […] To compare the hPEPD-degrading activities of different plasma samples, 9.2 pmol of hPEPD was incubated with 100 μl of plasma from WT mice or FVII^tTA/tTA mice at RT, with or without FIIa or FXa (10 pmol), and to maximize detection of any activity, all incubations lasted for 24 h. […] Although some clotting activity may take place before and during centrifugation of the blood sample, our experiments indicate that activation of coagulation factors, e.g., FVII, is very limited (see FIG. 5A). To measure remaining hPEPD, the incubated samples were cleared of potential fibrin clots by centrifugation and then analyzed by SDS-PAGE and silver staining (using the LC 6070 kit from Invitrogen), IB or measurement of hPEPD enzymatic activity. hPEPD enzymatic activity was measured using glycyl-proline as a substrate (as described in Zbucka et al., Folia Histochem Cytobiol 2007; 45 Suppl 1: S181-185). The precipitates from each incubated sample were washed with PBS twice and then resuspended in 2.5% SDS (20 μper sample); each solution was mixed with 10 μl loading dye and analyzed for hPEPD by IB, using pure hPEPD as a standard and factor FXIIIa as a binding control, respectively.
To measure degradation of hPEPD in plasma samples with or without removal of FVII and FVIIa, plasma samples from WT mice as described above were either used directly or immunodepleted of FVII and FVIIa before use. To remove FVII and FVIIa from plasma, 500 μl plasma was incubated with an antibody specific for FVII/FVIIa (GTX79785; 10 μg) and protein A sepharose beads for 1 h at RT. Following centrifugation at 13,000×g for 1 min at 4° C., the supernatant fraction was collected and analyzed by IB to confirm depletion of FVII and FVIIa. Next, 9.2 pmol of hPEPD was incubated with 100 μl of regular plasma or the plasma depleted of FVII/FVIIa, with or without FIIa (10 pmol) for 24 h at RT. Potential fibrin clots formed during the incubation was removed by centrifugation at the end of the incubation, and remaining hPEPD was measured by hPEPD enzymatic activity analysis.

The target in the next data set is T1, FXa (Homo sapiens, UniProt P00742).
T1 construct: purchased Haematologic Technologies HCXA-0060
T1 sequence (P00742 41-179 limits assumed): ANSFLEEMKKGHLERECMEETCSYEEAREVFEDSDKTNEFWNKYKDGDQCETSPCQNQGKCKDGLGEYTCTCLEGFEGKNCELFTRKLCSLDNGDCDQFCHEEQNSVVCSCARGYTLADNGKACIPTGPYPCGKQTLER
T1 sequence (P00742 235-488 limits assumed): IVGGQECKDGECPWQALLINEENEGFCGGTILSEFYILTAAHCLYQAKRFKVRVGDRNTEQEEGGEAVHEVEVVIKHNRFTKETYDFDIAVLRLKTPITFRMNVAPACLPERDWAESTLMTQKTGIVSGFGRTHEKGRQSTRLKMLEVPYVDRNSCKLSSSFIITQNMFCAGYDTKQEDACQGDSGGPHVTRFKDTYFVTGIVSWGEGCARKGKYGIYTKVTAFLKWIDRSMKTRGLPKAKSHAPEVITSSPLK
Nature of the data set: hPEPD stability on incubation with FXa. The format is biochemical. Conditions: hPEPD 90 nM, FXa 100 nM. The procedure: (§1) Measurement of in vitro degradation of hPEPD, mSRC and hAβ1-42. To determine whether a blood coagulation factor degrades hPEPD, hPEPD at 90 nM or lower concentrations (10 or 40 nM) was incubated with solvent, 100 nM FIIa, 100 nM FXa, 10 nM FVIIa with or without 10 nM TF, or 10 nM FVII with or without 10 nM TF and/or 100 nM FIIa in PBS in a total volume of 100 μl containing 5 mM CaCl2 for desired times at RT. […] To compare the hPEPD-degrading activities of different plasma samples, 9.2 pmol of hPEPD was incubated with 100 μl of plasma from WT mice or FVII^tTA/tTA mice at RT, with or without FIIa or FXa (10 pmol), and to maximize detection of any activity, all incubations lasted for 24 h. […] To measure remaining hPEPD, the incubated samples were cleared of potential fibrin clots by centrifugation and then analyzed by SDS-PAGE and silver staining (using the LC 6070 kit from Invitrogen), IB or measurement of hPEPD enzymatic activity. hPEPD enzymatic activity was measured using glycyl-proline as a substrate (as described in Zbucka et al., Folia Histochem Cytobiol 2007; 45 Suppl 1: S181-185). The precipitates from each incubated sample were washed with PBS twice and then resuspended in 2.5% SDS (20 μper sample); each solution was mixed with 10 μl loading dye and analyzed for hPEPD by IB, using pure hPEPD as a standard and factor FXIIIa as a binding control, respectively.

Another data set relates to plasma PEPD. Nature of the data set: Plasma PEPD concentration in mice by ELISA. The format is in vivo, mouse. Conditions: for average plasma level of total PEPD (hPEPD plus mPEPD), increase: hPEPD 10 mg/kg i.p., vs control. The procedure: Animal studies. All animal studies were performed in accordance with protocols approved by the Institutional Animal Care and Use Committee at Roswell Park Cancer Institute. Male mice at 7-8 weeks of age were used, including wild type (WT) mice (C57BL/6), and mice deficient in FXII (C57BL/6-FXII^−/−) or FVII (C57BL/6-FVII^tTA/tTA). WT C57BL/6 mice were purchased from Taconic. C57BL/6-FXII^−/− mice and C57BL/6-FVII^tTA/tTA mice were bred in our own facility and genotyped. The breeders were kindly provided by Dr. Francis J. Castellino at University of Notre Dame. […] CCl4 was dissolved in corn oil, whereas all other substances were dissolved in PBS. The vehicle or the test substance was given to mice in 0.1 ml volume per 20 g body weight. Blood was collected from the mice at specific times by cardiac puncture at the time of sacrifice by carbon dioxide, and heart, liver and kidney were also collected from some of the mice. Blood was collected into K3 EDTA-containing tubes (Multivette 600 from Sarstedt), unless specified otherwise. All blood samples were promptly centrifuged to obtain plasma samples.
Measurement of plasma levels of PEPD, SRC, Aβ1-42 and FI. […] The plates were washed three times with phosphate buffered saline tween-20 (PBST) and the coated wells were blocked by incubation with 200 μl/well of 1% BSA in PBS for at least 2 h at RT. After another round of wash with PBST, the plates were incubated with appropriately diluted Aβ1-42 standard, SRC standard or plasma samples (100 μl/well) for 2 h at RT. The plates were then washed with PBST and incubated with an anti-Aβ1-42 rabbit polyclonal antibody (sc-9129) or anti-SRC rabbit monoclonal antibody (2123) at 100 μl/well for 2 h at RT. The plates were washed again with PBST, and each well was incubated with a goat anti-rabbit IgG-HRP conjugate (100 μl) for 1 h at RT. After yet another round of wash with PBST, each well was incubated with 100 μl of HRP substrate 3,3′,5,5′-tetramethylbenzedine (Cell Signaling, 7004). Upon adequate color development, 100 μl of stop solution (Cell Signaling, 7002) was added to each well, and absorbance at 450 nm was promptly recorded by a microtiter plate reader. Plasma FI concentration was determined using an assay kit (400-374-130050) from GenWay Biotech, following the manufacturer's instruction.
(An ELISA detects its analyte on a solid surface through an enzyme-linked reagent.)

The target of the next data set is T2, FIIa (Homo sapiens, UniProt P00734).
T2 construct: purchased Haematologic Technologies HCT-0020
The experiment in a line: hPEPD stability on incubation with FIIa. Conditions: hPEPD 90 nM, FIIa 100 nM. Type of data set: biochemical. The procedure:
as §1

B1: hPEPD: recombinant human prolidase (PEPD), 6xHis tagged to the carboxy terminus (protein, UniProt P12955 2-493, looked up)
Xaa-Pro dipeptidase: AAATGPSFWLGNETLKVPLALFALNRQRLCERLRKNPAVQAGSIVVLQGGEETQRYCTDTGVLFRQESFFHWAFGVTEPGCYGVIDVDTGKSTLFVPRLPASHATWMGKIHSKEHFKEKYAVDDVQYVDEIASVLTSQKPSVLLTLRGVNTDSGSVCREASFDGISKFEVNNTILHPEIVECRVFKTDMELEVLRYTNKISSEAHREVMKAVKVGMKEYELESLFEHYCYSRGGMRHSSYTCICGSGENSAVLHYGHAGAPNDRTIQNGDMCLFDMGGEYYCFASDITCSFPANGKFTADQKAVYEAVLRSSRAVMGAMKPGVWWPDMHRLADRIHLEELAHMGILSGSVDAMVQAHLGAVFMPHGLGHFLGIDVHDVGGYPEGVERIDEPGLRSLRTARHLQPGMVLTVEPGIYFIDHLLDEALADPARASFLNREVLQRFRGFGGVRIEEDVVVTDSGIELLTCVPRTVEEIEACMAGCDKAFTPFSGPK
modifications: C-terminal 6xHis tag
notes: recombinant human prolidase (PEPD), 6xHis tagged to the carboxy terminus
As to B1, the “hPEPD degradation in plasma after adding human FIIa or FXa” value was “neither factor was effective” in data set [1] (FVII tTA/tTA plasma) and “markedly enhanced hPEPD degradation” in data set [1] (WT plasma). Further, the “hPEPD degradation after incubation with plasma” value in data set [1] (FVII tTA/tTA plasma, 24 h, RT) was “no degradation of hPEPD could be detected”. In addition, in data set [1] (WT plasma, 24 h, RT), the “hPEPD remained after incubation with plasma” value is 88.8%. Also, the “hPEPD degradation in plasma after removal of FVII/FVIIa by immunodepletion” value in data set [1] (WT plasma, with or without FIIa) is “abolished the residual hPEPD degradation or FIIa-enabled hPEPD degradation”. The “effect of FXa on hPEPD stability” value with FXa is “had no effect on hPEPD stability”. Besides, the “plasma level of total PEPD, increase” value with plasma PEPD (FVII tTA/tTA mice, hPEPD 0.2 mg/kg i.p., 6 h) was found to be 12.0 fold; in the data set on plasma PEPD (FXII−/− mice, hPEPD 0.2 mg/kg i.p., 6 h, no EP), 12.5 fold; in the data set on plasma PEPD (FXII−/− mice, hPEPD 4 mg/kg i.p., 24 h) it was 134.6 fold; in the data set on plasma PEPD (WT mice, hPEPD 4 mg/kg i.p., 24 h) it was 3.3 fold. Besides, the “average plasma level of total PEPD, of control” value in the data set with plasma PEPD (WT mice, hPEPD 0.2 mg/kg i.p., 1 h) is 51%; in the data set with plasma PEPD (WT mice, hPEPD 0.2 mg/kg i.p., 24 h), 46%. Also, the “plasma level of total PEPD, decrease” value in the data set on plasma PEPD (WT mice, hPEPD 0.2 mg/kg i.p., 6 h, no EP) is 66% and 56.3%. Further, the “average plasma level of total PEPD (hPEPD plus mPEPD), increase” value in the data set on plasma PEPD (WT mice, 1 h) is given as 19.4 fold; in the data set with plasma PEPD (WT mice, 24 h), 15.1 fold. Moreover, in the data set on plasma PEPD (hPEPD 0.2 mg/kg i.p., 6 h), the “plasma level of total PEPD, difference between FVII tTA/tTA and WT mice” value is 68.9 fold. Also, the “average plasma level of total PEPD, higher in FXII−/− mice than in WT mice” value in the data set on plasma PEPD (hPEPD 0.2 mg/kg i.p., 6 h, no EP) turned out to be 53.8 fold. In the data set with FIIa, the “effect of FIIa on hPEPD stability” value was “had no effect on hPEPD stability”.
